System: colonic tissue
Test: Pan-colonic administration in NHP: colonic tissue IL-10, IL-1Ra, pSTAT3, cytokines
Format: in vivo, cynomolgus monkeys
Experimental: IL-10 delivery construct solution (at concentrations of 0.1, 0.3 and 1.0 mg/mL for the low, mid and high-dose groups respectively) was administered via the rectal route using sigmoidoscopy and a syringe connected to a spray nozzle with a 360° spray pattern. Serial biopsy samples were collected by sigmoidoscopy (pre-dose, 0.25, 0.5, 0.75, 8 and 24-28 hours post dose). Serial plasma samples from 0 min pre-dose to between 24-28 hours post-dose were collected for analysis for the IL-10 delivery construct.
Phosphorylation of STAT3 is an early downstream event following IL-10 receptor activation.
Colonic biopsies at each tissue timepoint were analyzed for local concentration of IL-10 delivery construct, total IL-10, IL-1Ra, soluble cytokines, activation of STAT3 and gene expression following administration of the IL-10 delivery construct. […] In addition, STC1, MTNR1A and VNN2 encode proteins that suppress the […] signaling pathway, a pathway through which key pro-inflammatory cytokines are regulated. […] This is consistent with the ability of IL-10 to suppress these cells' activation or differentiation towards a pro-inflammatory immune phenotype.

B1: IL-10 delivery construct: recombinant homodimeric fusion protein: N-terminal methionine, cholix386 domain, polyGlySer spacer, recombinant human IL-10 (protein)
chain: MVEEALNIFDECRSPCSLTPEPGKPIQSKLSIPSDVVLDEGVLYYSMTINDEQNDIKDEDKGESIITIGEFATVRATRHYVNQDAPFGVIHLDITTENGTKTYSYNRKEGEFAINWLVPIGEDSPASIKISVDELDQQRNIIEVPKLYSIDLDNQTLEQWKTQGNVSFSVTRPEHNIAISWPSVSYKAAQKEGSRHKRWAHWHTGLALCWLVPMDAIYNYITQQNCTLGDNWFGGSYETVAGTPKVITVKQGIEQKPVEQRIHFSKGNAMSALAAHRVCGVPLETLARSRKPRDLTDDLSCAYQAQNIVSLFVATRILFSHLDSVFTLNLDEQEPEVAERLSDLRRINENNPGMVTQVLTVARQIYNDYVTHHPGLTPEQTSAGAQAGGGGSGGGGSGGGGSPGQGTQSENSCTHFPGNLPNMLRDLRDAFSRVKTFFQMKDQLDNLLLKESLLEDFKGYLGCQALSEMIQFYLEEVMPQAENQDPDIKAHVNSLGENLKTLRLRLRRCHRFLPCENKSKAVEQVKNAFNKLQEKGIYKAMSEFDIFINYIEAYMTMKIRN
modifications: homodimer
- total IL-10 in colonic tissue (1, 3, 10 mg): dose-dependent increase
- colonic tissue pSTAT3/STAT3 (all doses tested): Higher ratios

Source: patent US11466067B2 (priority 2019, dated 2022)
